Results from patent US20190359704A1 (Chugai, published 2019).
Where a chain is given by its changes, count along the chain named.

T1: human IL-6 receptor (soluble hIL-6R) (human, UniProt P08887 20-357, limits assumed, biotin-labeled in the ELISA experiments (sites not given))
T1 construct: also called biotin-labeled hIL-6R
T1 sequence: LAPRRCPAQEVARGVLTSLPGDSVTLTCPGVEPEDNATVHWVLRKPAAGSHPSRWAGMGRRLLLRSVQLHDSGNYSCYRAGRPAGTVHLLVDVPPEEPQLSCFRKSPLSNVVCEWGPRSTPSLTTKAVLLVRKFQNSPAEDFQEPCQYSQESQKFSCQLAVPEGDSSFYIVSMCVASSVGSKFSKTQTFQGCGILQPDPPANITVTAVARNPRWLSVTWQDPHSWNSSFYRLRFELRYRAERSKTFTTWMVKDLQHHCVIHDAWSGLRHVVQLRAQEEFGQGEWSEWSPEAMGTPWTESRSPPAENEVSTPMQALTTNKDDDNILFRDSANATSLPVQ

T2: membrane-type human IL-6R expressed on cells (human, UniProt P08887 20-468)
T2 construct: These are Ba/F3 cells (BaF/hIL-6R, WO2012/073992) or CHO cells expressing human IL-6 receptor; also called hIL-6R expressed on cell membrane; cell-membrane hIL-6R
T2 sequence: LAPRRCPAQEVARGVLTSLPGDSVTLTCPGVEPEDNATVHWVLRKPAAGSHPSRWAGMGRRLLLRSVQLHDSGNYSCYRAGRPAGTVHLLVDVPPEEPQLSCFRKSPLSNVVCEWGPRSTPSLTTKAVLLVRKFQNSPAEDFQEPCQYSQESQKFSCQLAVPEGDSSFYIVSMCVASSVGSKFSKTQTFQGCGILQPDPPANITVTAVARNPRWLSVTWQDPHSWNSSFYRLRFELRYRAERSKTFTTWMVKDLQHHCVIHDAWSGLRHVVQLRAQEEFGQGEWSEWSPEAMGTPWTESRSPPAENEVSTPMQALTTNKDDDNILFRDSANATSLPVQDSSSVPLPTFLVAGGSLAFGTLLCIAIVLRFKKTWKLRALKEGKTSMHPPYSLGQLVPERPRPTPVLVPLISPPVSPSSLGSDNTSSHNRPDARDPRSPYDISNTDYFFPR

B1: GC413 (antibody, human IgG1, kappa, L234A L235A, N297A, V domains shown)
VH: QVQLVQSGAEVKKPGASVKVSCKASGYTFTDYEMHWIRQPPGQGLEWIGAIDPKTGDTAYSQKFKGRVTLTADKSTSTAYMELSSLTSEDTAVYYCTRFYSYTYWGQGTLVTVSS
VL: DIVMTQSPLSLPVTPGEPASISCRSSQSLVHSNRNTYLHWYQQKPGQAPRLLIYKVSNRFSGVPDRFSGSGSGTDFTLKISRVEAEDVGVYYCSQNTHVPPTFGQGTKLEIKR
notes: also called anti-human glypican 3 antibody GC413; anti-human glypican-3 antibody GC413
B2: 6RNMSC1-2_F02 (antibody, human IgG1, kappa)
heavy: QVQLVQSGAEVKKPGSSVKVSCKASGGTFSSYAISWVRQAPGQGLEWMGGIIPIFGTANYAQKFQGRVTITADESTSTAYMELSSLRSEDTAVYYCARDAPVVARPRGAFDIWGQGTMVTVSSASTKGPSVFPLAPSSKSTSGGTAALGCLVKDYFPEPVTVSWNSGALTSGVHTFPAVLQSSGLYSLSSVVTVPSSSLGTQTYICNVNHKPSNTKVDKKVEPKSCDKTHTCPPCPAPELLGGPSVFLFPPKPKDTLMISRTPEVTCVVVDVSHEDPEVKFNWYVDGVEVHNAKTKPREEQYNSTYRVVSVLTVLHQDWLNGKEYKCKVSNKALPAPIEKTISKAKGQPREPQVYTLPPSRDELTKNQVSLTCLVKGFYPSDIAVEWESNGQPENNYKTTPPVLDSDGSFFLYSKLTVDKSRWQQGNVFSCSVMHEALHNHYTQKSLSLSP
light: DIVMTQTPLSSPVTLGQPASISCRSSQSLVHSDGNTYLSWLQQRPGQPPRLLIHEISNRFSGVPDRFSGSGAGTNFTLKISRVEAEDVGVYYCMQATQFPRTFGQGTKVEIKRTVAAPSVFIFPPSDEQLKSGTASVVCLLNNFYPREAKVQWKVDNALQSGNSQESVTEQDSKDSTYSLSSTLTLSKADYEKHKVYACEVTHQGLSSPVTKSFNRGEC
notes: also called clone 6RNMSC1-2_F02
B3: 6RAD2C1-4_001 (antibody, human IgG1, kappa, V domains shown)
VH: EVQLVESGGDLVKPGGGLRLSCAASGFTFSGHTMNWVRQAPGKGLEWVSSISSRSNYIYYADSVKGRFTISRDNAKNSLYLQMNSLRAEDTAVYYCARYGRLHDRNWVFDYWGQGTLVTVSS
VL: QSALTQPPSASGSPGQTVTISCTGTSTDVGDYNYVSWYQQHPGKAPKLMIYQVSKKPSGVPDRFSGSKSGNTASLTVSGLQAEDEADYFCSSRSYGAGVVFGGGTKLTVLR
notes: also called 6RAD2C1-4_01
B4: 6RAD2C1-4_030 (antibody, human IgG1, kappa, V domains shown)
VH: B3 VH with G31S, H32Y, N56G, I58A, Y99F, R101A, H103N, D104T, R105L
VL: B3 VL with S92T, S94T, Y95A, G96N, V100L
notes: also called 6RAD2C1-4_30
B5: 6RDL3C1-4_085 (antibody, human IgG1, kappa, V domains shown)
VH: B3 VH
VL: B3 VL
notes: also called 6RDL3C1-4_85
B6: 6RAD2C1-4_076 (antibody, human IgG1, kappa, V domains shown)
VH: B3 VH with H32Y, N56S, Y59D, R101A, H103G, D104Q
VL: QSALTQPPSASGSPGQTVTISCTGTSTDVGDYNYVSWYQQHPGKAPKLMIYQTSKRPSGVPDRFSGSKSGNTASLTVSGLQAEDEADYFCSSRSIKHPVFGGGTKLTVLR
notes: also called 6RAD2C1-4_76
B7: 6RAD2C1-4_011 (antibody, human IgG1, kappa, V domains shown)
VH: B3 VH with N56S, R101A, H103G, D104Q, R105M
VL: B3 VL with Q52S, K56R, Y95S, G96S, A97M, G98N, V100L
notes: also called 6RAD2C1-4_11
B8: 6RAD2C1-4_026 (antibody, human IgG1, kappa, V domains shown)
VH: B3 VH with H32Y, I58A, Y59H, H103G
VL: B3 VL with D31A, Q52K, S92L, S94A, Y95A, G96T, A97T, V100L
notes: also called 6RAD2C1-4_26
B9: 6RAD2C1-4_005 (antibody, human IgG1, kappa, V domains shown)
VH: B3 VH with G31T, N56S, Y59H, Y99F, R101K, H103G, D104E
VL: B3 VL with S92V, Y95D, A97H, V99P, V100M
notes: also called 6RAD2C1-4_05
B10: MRA (antibody, human IgG1, kappa, V domains shown)
VH: QVQLQESGPGLVRPSQTLSLTCTVSGYSITSDHAWSWVRQPPGRGLEWIGYISYSGITTYNPSLKSRVTMLRDTSKNQFSLRLSSVTAADTAVYYCARSLARTTAMDYWGQGSLVTVSS
VL: DIQMTQSPSSLSASVGDRVTITCRASQDISSYLNWYQQKPGKAPKLLIYYTSRLHSGVPSRFSGSGSGTDFTFTISSLQPEDIATYYCQQGNTLPYTFGQGTKVEIKR
notes: also called known anti-human IL-6R antibody MRA; control antibody MRA
B11: I6NMSC1-3_A11 (antibody, human IgG1, lambda, V domains shown)
VH: QVQLQESGGGVVQPGRSLRLSCAASGFTFSSYAMHWVRQAPGKGLEWVAVISYDGSNKYYADSVKGRFTISRDNSKNTLYLQMNSLRAEDTAVYYCARDAVTGDDWYFDLWGRGTLVTVSS
VL: SYELTQPPSVSVAPGKTARITCGGNNIGSKSVHWYQQKPGQAPVLVVYDDSDRPSGIPERFSGSNSGNTATLTISRVEAGDEADYYCQVWDSSSDHPVFGGGTKLTVLG

How the values were obtained:
human serum albumin = biological target: T3, human serum albumin (human, UniProt P02768 25-609, biotin-labeled (sites not given)); assay: ELISA, biotin-labeled HSA on streptavidin plate, absorbance 450 nm; nine small-molecule conditions of Table 3
T3 construct: also called HSA; biotin-labeled HSA

[1] = biological target: T1, human IL-6 receptor (soluble hIL-6R); assay: ELISA, biotin-labeled hIL-6R on streptavidin plate, absorbance 450 nm; seven conditions of Table 18
[2] = biological target: T1, human IL-6 receptor (soluble hIL-6R); assay: SPR Biacore T200, antibody captured on protein A CM5 chip, IL-6R analyte, 25 C, with 100 µmol/l kynurenine; SPR, antibody captured on the chip, IL-6R as analyte, 100 µmol/l kynurenine
Description: Each parameter was calculated using the Biacore T200 Evaluation Software (GE Healthcare).

[3] = biological target: T1, human IL-6 receptor (soluble hIL-6R); assay: SPR Biacore T200, IL-6R immobilised on CM5, antibody analyte in a concentration series, 1 mM ATP, 25 C; KD from plot of equilibrium value against antibody concentration; SPR, IL-6R on the chip, antibody concentration series, 1 mM ATP, 25 C
Description: The running buffer was used: 20 mmol/1 ACES, 150 mmol/l NaCl, 0.05% (w/v) Tween20, pH 7.4. Assay was carried out at 25° C. […] For dilution of the antibodies, the running buffer or the running buffer containing any one of ATP, ADP, AMP, cAMP, and adenosine (ADO) were used. The final concentration of each small molecule and the final concentration of each antibody were adjusted to 1 mM and 1 μM, respectively. Meanwhile, under the 1 mM ATP condition, assay was carried out with a series of stepwise antibody concentrations. The dissociation constant KD (mol/L) of each clone for IL-6R was calculated from a plot of equilibrium value against antibody concentration. The parameters were calculated using the Biacore T200 Evaluation Software (GE Healthcare).

[4] = biological target: T2, membrane-type human IL-6R expressed on …; assay: flow cytometry, BaF/hIL-6R cells, secondary antibody against the constant region, with or without 100 µM kynurenine
Description: An appropriate number of BaF/hIL-6R cells were prepared and blocked with PBS containing 2% FBS on ice for one hour or more. […] In this step, the antibodies were contacted with cell-membrane hIL-6R on ice for 30 minutes. […] Then, in the presence or absence of kynurenine, the complex was contacted with a secondary antibody (Beckman Coulter IM1627) that recognizes the antibody constant region. After 30 minutes of incubation with the antibody on ice, the cells were again washed with Wash Buffer and then re-suspended in PBS/2% FBS.

human IL-6 [5] = biological target: T4, human IL-6 (human, biotin-labeled in the ELISA experiments (sites not given)); assay: SPR Biacore T200, A11 captured on protein A/G CM5 chip, human IL-6 analyte, 37 C, running buffer with 100 µmol/l kynurenine; SPR kinetics, A11 captured on the chip, IL-6 analyte, 100 µmol/l kynurenine
T4 construct: ELISA used biotin-labeled human IL-6; SPR used human IL-6 from Kamakura Techno-Science, Inc; also called biotin-labeled human IL-6
Description: Sensor chip CM5 (GE Healthcare) was immobilized with an appropriate amount of protein A/G (Invitrogen) by amine coupling. Antibodies of interest were captured by the chip to allow interaction to IL-6 as an antigen. The two types of running buffers used were 10 mmol/1 ACES, 150 mmol/l NaCl, 0.05% (w/v) Tween20, 100 μmol/l kynurenine, pH 7.4, and 10 mmol/1 ACES, 150 mmol/l NaCl, 0.05% (w/v) Tween20, pH 7.4. The interaction with IL-6 as an antigen was assessed at 37° C. The buffer used to dilute IL-6 was the same running buffer as described above.
Then, the running buffer was injected at a flow rate of 5 μl/min for three minutes. After observation of human IL-6 dissociation from the antibody, 10 mmol/l glycine-HCl (pH 1.5) was injected at a flow rate of 30 μl/min for 30 seconds to regenerate the sensor chip. […] Each parameter was calculated using the Biacore T200 Evaluation Software (GE Healthcare).

human IL-6 [6] = biological target: T4, human IL-6; assay: SPR (Biacore T200), A11 immobilised on CM5, 1 µmol/L IL-6 as analyte for 60 s, 25 °C, kynurenine concentration varied (axis in µmol/L)
Description: The running buffer used was 10 mmol/1 ACES, 150 mmol/l NaCl, 0.05% (w/v) Tween20, pH 7.4. […] All was immobilized onto sensor chip CM5 by amine coupling, and as an analyte IL-6 was diluted to 1 μmol/l with 10 mmol/1 ACES, 150 mmol/l NaCl, 0.05% (w/v) Tween20, pH 7.4 containing kynurenine at various concentrations, and allowed to interact for 60 seconds to observe changes in the amount of binding.

Row | Binder | Kd [3] | further results
1 | B1 |  | binding result (human serum albumin): no binding (tested: 2.5 µg/ml); binding result [1]: no binding (tested: 2.5 µg/ml)
2 | B2 |  | Kd [2]: 1500 nM
3 | B3 | 300 nM | 
4 | B4 | 330 nM | 
5 | B5 | 390 nM | 
6 | B6 | 250 nM | 
7 | B7 | 230 nM | 
8 | B8 | 210 nM | 
9 | B9 | 340 nM | 
10 | B10 |  | binding result [4]: binds
11 | B11 |  | Kd (human IL-6 [5]): 1000 nM; KD printed beside the curve of IL-6 binding against the kynurenine concentration (per paragraph 715 the KD of kynurenine for forming the A11/IL-6/kynurenine complex, not the antibody-antigen KD) (human IL-6 [6]): 32 nM
